Biological target: T1, translation initiation factor IF3 (Escherichia coli) (UniProt P0A707)
T1 sequence: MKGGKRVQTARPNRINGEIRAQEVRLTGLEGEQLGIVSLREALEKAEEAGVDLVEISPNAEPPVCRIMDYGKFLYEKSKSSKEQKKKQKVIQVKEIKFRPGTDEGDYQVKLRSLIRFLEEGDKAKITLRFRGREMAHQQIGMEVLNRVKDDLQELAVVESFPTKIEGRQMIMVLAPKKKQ
Assay: fluorescence anisotropy
Conditions: Binding buffer and temperature not given in material; EMSA gels in Tris/acetate or Tris/borate; anisotropy with 200 nM RNA and DFHBI-1T; protein storage buffer …

## GGGUGGUAACUAGCCAAGCAGCUAGUUACCAAAUCGGGAGAAUCCCGGGUCCUCUCUUUAGGGGGAGGUCCCUGGGCCGAAGCCCGCCCACCUUUCGGUGGAGCCGGACCGCUUUCGCACCCGUGCUCUUUCGAGCACACCCACCCCGUUUACGGGGGUCCCUCGGUCAGCUACCGAGGAGUUGCCAUGUGUAUGUGGGAGACGGUCGGGUCCAGAUAUUCGUAUCUGUCGAGUAGAGUGUGGGCUCCCACAUACUCUGAUGAUCCUUCGGGAUCAUUCAUGGCAAAAACCUCCUAGGAAUGGAAUUCCGGCUACCUACAGCGAUAGCCAUGGUAGCGUCUCGCUAAAGACAUUAAAAAUGGCAUUAGCUCGACAGGAAGUUGAGCAGGACCCCGAAAGGGGUCCCACCC [[F30-Bro(+)]UTR(-)]
  Kd: 3.5 µM
